Here are results for four molecules from patent US20260263521A1 (AIMED BIO, published 2026).

In test [1] the target is T1, Hybrid CD200R1 MH (mouse;human, UniProt Q9ES57;Q8TD46).
T1 construct: single domain; mouse D1 over human D2; also called MH hybrid domain; P001 MH domain
T1 sequence (hybrid extracellular part, looked up): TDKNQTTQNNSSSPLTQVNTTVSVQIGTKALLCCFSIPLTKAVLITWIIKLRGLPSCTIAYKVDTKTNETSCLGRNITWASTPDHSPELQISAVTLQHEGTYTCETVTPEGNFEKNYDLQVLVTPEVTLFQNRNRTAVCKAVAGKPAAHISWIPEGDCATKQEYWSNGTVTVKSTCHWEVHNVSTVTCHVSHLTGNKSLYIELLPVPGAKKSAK
The test can be described thus: ELISA, plate-bound MH hybrid (1 ug/mL), antibody 0.0192-300 nM, O.D 450 nm; panel 'P001 MH domain-1)'. How it is done:
(§1) Recombinant proteins were produced from the extracellular Ig-like V-type domain and Ig-like C2-type domain of human CD200R1, each designed as human-mouse (HM hybrid domain) and mouse-human (MH hybrid domain) recombinant proteins. A 96-well plate was coated at a concentration of 1 μg/mL with each protein at 4° C. for 16 hours and blocked with 3% skim milk. […] After color development with TMB substrate solution (Thermo Scientific, 34029, 1-Step™ Ultra TMB-ELISA Substrate Solution), the color reaction was stopped with a stop solution (Invitrogen, SS04, ELISA Stop Solution), and the absorbance was measured at an O.D. of 450 nm.
On the technique in general: ELISA stands for enzyme-linked immunosorbent assay.

Test [2] concerns the target T2, mouse CD200R1 protein (R&D systems, 2554-CD) (mouse, UniProt Q9ES57 26-238, limits assumed).
T2 construct: Bought; construct not described
T2 sequence (looked up): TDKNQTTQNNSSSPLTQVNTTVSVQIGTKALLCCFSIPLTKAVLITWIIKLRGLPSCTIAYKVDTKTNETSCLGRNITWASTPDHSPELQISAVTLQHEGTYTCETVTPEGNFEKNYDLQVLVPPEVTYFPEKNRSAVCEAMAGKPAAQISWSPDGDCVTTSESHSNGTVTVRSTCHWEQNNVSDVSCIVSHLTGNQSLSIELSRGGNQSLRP
Kind of test: ELISA on coated mouse CD200R1.

The target of test [3] is T3, human CD200RLa (Sino Biological, 11620-H08H) recombinant protein (human, UniProt Q6Q8B3 24-239).
T3 construct: Bought; construct not described
T3 sequence (looked up): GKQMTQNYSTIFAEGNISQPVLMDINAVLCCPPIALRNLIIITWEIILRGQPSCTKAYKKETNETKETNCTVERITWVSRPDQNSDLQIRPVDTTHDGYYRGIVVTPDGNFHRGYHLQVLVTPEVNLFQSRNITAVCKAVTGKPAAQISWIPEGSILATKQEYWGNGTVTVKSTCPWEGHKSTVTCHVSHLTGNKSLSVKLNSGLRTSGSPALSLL
Kind of test: ELISA, plate-bound human CD200RLa (2 ug/mL), antibody 0.0192-300 nM, O.D 450 nm; panel 'recombinant human CD200RLa'. Summed up: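 Plates coated overnight (16 h, 4° C) with human or cynomolgus CD200RLa recombinant protein, blocked with 3% skim milk; bound antibody detected by TMB colour development, reaction stopped before reading.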

Test [4] deals with T4, human CD200R1 recombinant protein (construct not stated) (human, UniProt Q8TD46 27-266, limits assumed).
T4 sequence (looked up): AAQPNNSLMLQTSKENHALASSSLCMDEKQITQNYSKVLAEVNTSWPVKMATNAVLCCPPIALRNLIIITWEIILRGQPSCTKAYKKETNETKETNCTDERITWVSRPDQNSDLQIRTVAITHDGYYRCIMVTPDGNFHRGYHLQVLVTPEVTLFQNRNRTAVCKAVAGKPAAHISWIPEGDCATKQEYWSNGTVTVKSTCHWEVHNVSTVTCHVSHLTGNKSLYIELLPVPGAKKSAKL
Kind of test: hybridoma ELISA on human CD200R1.

The target in test [5] is T1, Hybrid CD200R1 MH. Kind of test: ELISA, plate-bound MH hybrid (1 ug/mL), antibody 0.0192-300 nM, O.D 450 nm; panel 'P001 MH domain-4)'. How it is done:
as §1

In test [6] the target is T5, human CD200R1 expressed on cells (Jurkat-CD200R1, U937-CD200R1, HH cells) (human, UniProt Q8TD46 25-348).
T5 construct: whole, on cells; also called HH (CRL-2105); cell surface-expressed CD200R1
T5 sequence (looked up): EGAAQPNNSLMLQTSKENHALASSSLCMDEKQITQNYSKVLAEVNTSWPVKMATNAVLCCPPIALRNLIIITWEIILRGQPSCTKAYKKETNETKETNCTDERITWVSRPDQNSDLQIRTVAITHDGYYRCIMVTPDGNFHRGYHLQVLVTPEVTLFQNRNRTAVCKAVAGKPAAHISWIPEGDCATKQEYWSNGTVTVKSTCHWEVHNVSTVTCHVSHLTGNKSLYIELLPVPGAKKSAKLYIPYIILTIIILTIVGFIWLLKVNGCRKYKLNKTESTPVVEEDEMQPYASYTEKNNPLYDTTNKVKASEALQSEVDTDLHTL
The test can be described thus: flow cytometry, U937-CD200R cells. The protocol: (§2) Two additional wells were treated with 10 μl of mouse IgG1K (BD, #555751) and 5 μl of commercial CD200R1 antibody (Biolegend, #329308) to determine CD200R1 expression on the cell line surface for cell quality control.
(§3) The antibodies were serially diluted 10-fold from a maximum concentration of 100 nM to 10 nM, 1 nM, […], and were added to the pre-seeded cells. After reaction for 1 hour at 4° C., the cells were treated with Alexa-647 goat anti-human IgG (H+L) cross-adsorbed secondary antibody (Invitrogen, #A21445) and incubated for an additional 30 minutes at 4° C. After washing twice with FACS buffer, flow cytometry was performed using a Novocyte Flow cytometer (Agilent). Using GraphPad Prism software, the EC₅₀ was determined using a nonlinear graph model of log (agonist) vs. response-variable slope, as shown in Table 32.
For orientation: In flow cytometry, cells or beads pass a laser one at a time.

Test [7] deals with T4, human CD200R1 recombinant protein …. The test can be described thus: ELISA on human CD200R1, normalized absorbance at 450 nm, 0.0192-300 nM; panel 'Human CD200R1'.
Test [8] concerns the target T5, human CD200R1 expressed on cells …. Kind of test: flow cytometry, Jurkat-CD200R cells. The protocol: as §2, §3
The target is the same in test [9]. Kind of test: flow cytometry, HH cells. The protocol: as §2, §3
For test [10] the target is unchanged. Kind of test: cell-based or functional assay.
For test [11] the target is unchanged. The test can be described thus: cell-based or functional assay. This is another data set of the same source.
Test [12] has as its target T6, cynomolgus CD200R1 with dual His-tags (cynomolgus, UniProt G7NZT0 25-266).
T6 construct: Captured on the SPR chip by an anti-histidine antibody; also called CCD200R1-his; cCD200R1-his; not shown: dual His-tags
T6 sequence: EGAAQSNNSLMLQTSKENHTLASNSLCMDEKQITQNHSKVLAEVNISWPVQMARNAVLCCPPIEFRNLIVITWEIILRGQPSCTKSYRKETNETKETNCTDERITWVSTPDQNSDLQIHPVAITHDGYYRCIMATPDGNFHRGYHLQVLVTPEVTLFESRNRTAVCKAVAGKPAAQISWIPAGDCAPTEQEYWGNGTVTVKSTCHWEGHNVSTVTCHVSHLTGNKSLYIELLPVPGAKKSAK
Kind of test: SPR (Biacore CM5), His-tagged antigen captured by anti-histidine antibody, antibody as analyte, 1:1 Langmuir fit. The protocol: (§4) For the experiment, 30 μg/mL of an anti-histidine antibody was conjugated to a CM5 biacore chip via an amine bond while allowing to flow at 10 μl/min (10,000 RU). Then, 0.25 μg/mL of human or cynomolgus CD200R1 with dual His-tags was captured onto the completed chip for 60 seconds, and the binding ability of each antibody was analyzed. All experiments were performed by association of antibodies for 120 seconds and dissociation of antibodies for 600 seconds. The resulting graphs were fitted using a 1:1 Langmuir binding kinetic model (FIG. 16), and the kinetics of each antibody were calculated.
In general terms: SPR reads the build-up and loss of mass on a sensor chip optically.

The target of test [13] is T7, human CD200R1 with dual His-tags (human, UniProt Q8TD46 25-265).
T7 construct: Captured on the SPR chip by an anti-histidine antibody; also called hCD200R1-his; not shown: dual His-tags
T7 sequence (looked up): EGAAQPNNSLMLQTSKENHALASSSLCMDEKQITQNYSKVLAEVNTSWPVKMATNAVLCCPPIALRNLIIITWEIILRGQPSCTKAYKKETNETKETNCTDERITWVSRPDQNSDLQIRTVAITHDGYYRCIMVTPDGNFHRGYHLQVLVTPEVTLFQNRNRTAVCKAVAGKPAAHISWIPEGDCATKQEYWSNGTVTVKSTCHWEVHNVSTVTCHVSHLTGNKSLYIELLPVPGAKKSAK
The test is described as above. The protocol: as §4

B1: P001001 (IgG) (antibody, V domains shown)
VH: EVQLLESGGGLVQPGGSLRLSCAASGFTFSSYDMHWVRQAPGKGLEWVSRISFTGSTSYNPSLKSRFTISRDNSKNTLYLQMNSLRAEDTAVYYCARDTWWEGYFDLWGQGTLVTVSS
VL: QSVLTQPPSASGTPGQRVTISCSGSSSNIGNNHVSWYQQLPGTAPKLLIYDDTDRLTSVPNRFSGSKSGTSASLAISGLRSEDEADYYCGTWDSSLSAYVFGGGTKLTVL
On to B1, for which the binding result in test [1] is “no binding (tested: 300 nM)”; in test [2], “no binding (tested: 300 nM (highest concentration tested))”; in [3], “no binding (tested: 300 nM)”.

B2: 6A10 (hybridoma clone) (antibody, V domains shown)
VH: QLQQSGAELVRSGASVKLSCTASGFNIKDYYLHWIKQRPEQGLEWIGWIDPENGDTEYAPKFQGKATMTADTSSNTAYLQLISLTSEDAAVYYCFAGGSYWGQGTSVTVSS
VL: DIVMTQSPSSLSVSAGEKVTMSCKSSQSLLNSGNQKNYLAWYQQKPGQPPKLLIYGASTRESGVPDRFTGSGSGTDFTLTISSVQAEDLAVYYCQNDHSYPYTFGGGTKLEIK
B2: in test [4], the “ELISA O.D.” value is ≥ 1.5 O.D. The binding result in test [5] is “no binding (tested: 300 nM)”.

B3: P001009v1 (antibody, V domains shown)
VH: EVQLLESGGGLVQPGGSLRLSCAASGFTFSSYDMSWVRQAPGKGLEWVSWISHGGGSIYYADSVKGRFTISRDNSKNTLYLQMNSLRAEDTAVYYCARDAPAYSAPLFDYWGQGTLVTVSS
VL: QSVLTQPPSASGTPGQRVTISCSGSSSNIGNNAVNWYQQLPGTAPKLLIYYDKNRPSGVPDRFSGSKSGTSASLAISGLRSEDEADYYCAAWDDRLSGYVFGGGTKLTVL
notes: P001009 with LC S52K and S94R (Kabat); also called P019001v1; P0001009v1
As usually defined, the EC50 is the midpoint of the concentration-response curve. Higher therefore signals weaker potency. Broadly, the EC50 (read off the curve) is the concentration needed to bring the measured effect to its halfway point. As usually defined, the Kd is the constant that tells how readily two partners part at equilibrium. A lower Kd goes with tighter binding. As usually defined, the koff is the rate constant with which the complex falls apart. Low readings indicate slow dissociation, high ones fast dissociation. One may read the kon as a measure of how fast the partners come together. On to B3, for which the results for the EC50 in [6], in [8] and in [9] were 0.3 nM, 0.17 nM and 0.16 nM, respectively. For the same molecule, the “EC50 (read off the curve)” value in test [7] is ~3 nM. For the same molecule, the “EC50 (nM), degree of signal transduction by the Dok2 protein” value in test [10] came to 1.28 nM. Besides, in test [11], the “IC50 (nM) of IL-6 inhibition, LPS-treated U937-CD200R1 cells” value was determined as 0.1 nM. In addition, the “IC50 (nM) of TNF-α inhibition, LPS-treated U937-CD200R1 cells” value in [11] was found to be 0.18 nM. In addition, the dissociation constant Kd in test [12] amounted to 0.264 nM; in test [13], 0.021 nM. Also, the koff in [12] worked out at 0.00138 s⁻¹; in test [13], 0.0001 s⁻¹. Besides, the association rate constant (kon) was 5.23e+06 M⁻¹ s⁻¹ in [12] and 4.77e+06 M⁻¹ s⁻¹ in test [13].

B4: P001016 (IgG) (antibody, V domains shown)
VH: EVQLLESGGGLVQPGGSLRLSCAASGFTFSGYDMSWVRQAPGKGLEWVSGISYDGGSKYYADSVKGRFTISRDNSKNTLYLQMNSLRAEDTAVYYCAKDGYPLGAYYFDYWGQGTLVTVSS
VL: QSVLTQPPSASGTPGQRVTISCSVSSSNIGSNYVSWYRQLPGTAPKLLIYDDSKRPSGVPDRFSGSKSGTSASLAISGLRSEDEADYYCGTWDASLNGYVFGGGTKLTVL
B4: the binding result in [2] was “no binding (tested: 300 nM (highest concentration tested))”.
